From patent publication US20240400677A1 (ELECTRA THERAPEUTICS, published 2024) come the findings set out here.

The target of assay [1] is T1, cynomolgus monkey SIRPγ on CHO cells (cynomolgus monkey, UniProt Q9P1W8 29-386 (human entry)).
T1 construct: also called Cyno SIRPγ CHO
T1 chain: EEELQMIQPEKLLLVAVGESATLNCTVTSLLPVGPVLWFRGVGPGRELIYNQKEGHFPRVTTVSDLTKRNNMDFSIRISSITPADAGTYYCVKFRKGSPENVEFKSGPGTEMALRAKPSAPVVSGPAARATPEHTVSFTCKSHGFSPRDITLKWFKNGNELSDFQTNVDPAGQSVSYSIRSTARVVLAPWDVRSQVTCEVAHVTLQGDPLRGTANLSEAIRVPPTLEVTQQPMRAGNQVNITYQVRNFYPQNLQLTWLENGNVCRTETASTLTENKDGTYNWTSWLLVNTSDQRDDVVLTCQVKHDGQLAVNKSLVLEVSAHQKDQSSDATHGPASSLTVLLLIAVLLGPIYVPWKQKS
Description: flow cytometry, CHO transfectants, anti-human IgG. A digest of the protocol:
(§1)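 Antibodies are titrated onto CHO cells stably expressing the SIRP protein, then detected with fluorescent anti-human IgG. MFI is plotted against concentration. Crude PPE containing myc-tagged scFv is tested against the same lines and parental CHO-K1, with fold change <2.0 taken as non-binding.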
(In general: A flow cytometer gives signals particle by particle.)

In assay [2] the target is T2, cynomolgus monkey SIRPα on CHO cells (cynomolgus monkey, UniProt A0A2K5VYQ9 31-507).
T2 construct: whole, on cells; also called Cyno SIRPα CHO
T2 sequence: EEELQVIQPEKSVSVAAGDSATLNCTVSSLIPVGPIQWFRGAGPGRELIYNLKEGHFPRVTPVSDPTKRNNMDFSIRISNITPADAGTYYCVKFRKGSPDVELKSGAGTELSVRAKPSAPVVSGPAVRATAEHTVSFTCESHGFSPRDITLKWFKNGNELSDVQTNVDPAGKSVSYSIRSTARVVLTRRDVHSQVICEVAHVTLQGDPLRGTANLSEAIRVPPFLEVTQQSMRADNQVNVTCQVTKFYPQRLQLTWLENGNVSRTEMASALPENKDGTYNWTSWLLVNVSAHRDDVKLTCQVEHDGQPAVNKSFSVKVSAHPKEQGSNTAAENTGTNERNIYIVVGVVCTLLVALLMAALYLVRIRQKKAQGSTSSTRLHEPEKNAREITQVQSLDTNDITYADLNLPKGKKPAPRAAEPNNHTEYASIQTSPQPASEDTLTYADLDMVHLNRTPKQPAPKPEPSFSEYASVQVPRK
Description: flow cytometry, CHO transfectants, anti-human IgG. Put shortly: as §1

Assay [3] has as its target T3, human SIRPγ on stably transfected CHO cells (human, UniProt Q9P1W8 29-387).
T3 construct: also called Human SIRPγ CHO
As to the kind of experiment: flow cytometry, CHO transfectants, anti-human IgG. Put shortly:
as §1

Assay [4] deals with T4, Cynomolgus Monkey SIRPγ (plate-coated extracellular domain).
T4 construct: also called Cyno SIRPγ
T4 extracellular domain: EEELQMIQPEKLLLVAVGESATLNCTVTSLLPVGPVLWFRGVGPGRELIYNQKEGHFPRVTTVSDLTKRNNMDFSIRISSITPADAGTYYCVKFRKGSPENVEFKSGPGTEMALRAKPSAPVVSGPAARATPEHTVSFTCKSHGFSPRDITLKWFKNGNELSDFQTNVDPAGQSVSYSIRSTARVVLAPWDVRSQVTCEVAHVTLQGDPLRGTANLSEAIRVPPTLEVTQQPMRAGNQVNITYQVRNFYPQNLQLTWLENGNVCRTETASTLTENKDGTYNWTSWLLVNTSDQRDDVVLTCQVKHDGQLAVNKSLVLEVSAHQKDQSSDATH
Description: ELISA, coated SIRP ECD (2 µg/mL), anti-human IgG, luminescence. Put shortly:
(§2)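 Plate-coated SIRP extracellular domain (2 μg/mL), blocked, then exposed to purified antibodies in titration, after transient expression in Expi293F cells for 5 days and Protein A purification. Bound antibody is detected with anti-human IgG and a chemiluminescent substrate, and reported as relative luminescence units.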
In general terms: In an ELISA, binding on a coated surface is turned into a signal by an enzyme label.

Assay [5] has as its target T5, extracellular binding domain of human SIRPγ (plate-coated) (human, UniProt Q9P1W8 29-360).
T5 construct: also called hSIRPγ
Description: competition ELISA, coated SIRPγ ECD, antibody 1 h then 10 µg/mL biotinylated CD47-Fc (blocked ligand), streptavidin-HRP. Here is the method:
To carry out the competition experiment, the extracellular binding domain of SIRPγ was coated onto a high protein-binding plate and blocked. A titration of each SIRPγ antibody was incubated on the plate for 1 hour. […] Following a wash, streptavidin-HRP was added. The plate was washed again and developed using a chemiluminescent substrate. The plate was read on a plate reader to assess luminescence. […] A known blocker antibody was used as a positive control.

Assay [6] concerns the target T6, human SIRPγ-His monomer protein (human, UniProt Q9P1W8 29-360).
T6 construct: also called hSIRPγ
Description: BLI Octet, antibody on AHC, global 1:2 model. Here is the method: (§3) Antibodies were coated onto anti-human Fc capture (AHC) biosensors. SIRP-His monomer protein or bivalent SIRP protein with mouse Fc at four concentrations (200 nM, 100 nM, 50 nM, 25 nM) were exposed to the biosensor to measure on-rate kinetics of SIRP antibodies binding to SIRP protein. The biosensors were then exposed to wash buffer to measure off-rate kinetics. The resulting kinetic data were analyzed and fitted using a global 1:2 binding model.
A general note: In BLI a coated tip is dipped into the sample, and binding shifts an interference pattern.

Assay [7] addresses T7, cynomolgus monkey SIRPγ-His monomer protein (cynomolgus monkey, UniProt Q9P1W8 29-359 (human entry), limits assumed).
T7 construct: also called Cyno SIRPγ; Cyno SIRPγ-His
T7 chain: T4 extracellular domain
As to the kind of experiment: BLI Octet, antibody on AHC, global 1:2 model. Here is the method:
as §3

Assay [8] concerns the target T8, bivalent human SIRPγ protein with mouse Fc (human, UniProt Q9P1W8 29-360).
T8 construct: also called Human SIRPγ-mFc
Description: BLI Octet, antibody on AHC, global 1:2 model. Here is the method: as §3

Assay [9] has as its target T9, human SIRPβ1 on CHO cells (co-transfected with DAP12) (human, UniProt O00241 30-398).
T9 construct: whole, on cells; co-transfected with DAP12; also called Human SIRPβ1 CHO
As to the kind of experiment: flow cytometry, CHO transfectants, anti-human IgG. Put shortly:
as §1

For assay [10], the target named is T5, extracellular binding domain of human …. As to the kind of experiment: ELISA, coated SIRP ECD (2 µg/mL), anti-human IgG, luminescence. A digest of the protocol: as §2

Substitutions are numbered along the chain they refer to.

T9 sequence (O00241 30-398): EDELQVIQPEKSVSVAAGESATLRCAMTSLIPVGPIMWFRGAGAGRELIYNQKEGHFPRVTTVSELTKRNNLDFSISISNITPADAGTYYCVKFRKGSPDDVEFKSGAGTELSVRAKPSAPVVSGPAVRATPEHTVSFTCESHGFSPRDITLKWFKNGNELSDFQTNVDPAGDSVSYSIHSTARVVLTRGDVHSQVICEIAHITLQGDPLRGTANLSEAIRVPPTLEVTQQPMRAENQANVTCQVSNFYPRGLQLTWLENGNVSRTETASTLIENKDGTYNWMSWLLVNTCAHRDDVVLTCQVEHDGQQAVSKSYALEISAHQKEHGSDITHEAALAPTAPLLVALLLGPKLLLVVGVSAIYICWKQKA
T3 sequence (Q9P1W8 29-387 limits assumed): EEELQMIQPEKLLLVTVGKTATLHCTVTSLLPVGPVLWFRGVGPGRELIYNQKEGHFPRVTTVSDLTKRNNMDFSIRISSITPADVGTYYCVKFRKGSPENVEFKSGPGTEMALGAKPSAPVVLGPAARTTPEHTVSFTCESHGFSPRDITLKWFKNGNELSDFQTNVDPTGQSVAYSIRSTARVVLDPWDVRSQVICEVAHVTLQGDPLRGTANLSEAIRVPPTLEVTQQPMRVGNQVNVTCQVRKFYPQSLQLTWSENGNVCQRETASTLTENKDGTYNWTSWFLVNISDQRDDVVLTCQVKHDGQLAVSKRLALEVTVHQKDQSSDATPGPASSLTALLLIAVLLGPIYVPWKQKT
T5 sequence (Q9P1W8 29-360 limits assumed): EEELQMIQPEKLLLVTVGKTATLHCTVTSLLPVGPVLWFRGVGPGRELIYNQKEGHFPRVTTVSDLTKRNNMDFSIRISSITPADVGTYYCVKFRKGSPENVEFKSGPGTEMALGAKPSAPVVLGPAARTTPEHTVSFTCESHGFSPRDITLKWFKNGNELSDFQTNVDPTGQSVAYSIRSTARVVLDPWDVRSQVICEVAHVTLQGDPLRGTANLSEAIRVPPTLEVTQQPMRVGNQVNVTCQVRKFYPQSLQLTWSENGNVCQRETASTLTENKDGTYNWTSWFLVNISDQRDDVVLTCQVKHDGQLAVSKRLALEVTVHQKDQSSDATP
T8 sequence (Q9P1W8 29-360 limits assumed): as above
T6 sequence (Q9P1W8 29-360 limits assumed): as above

B1: Antibody 64 (antibody, V domains shown)
VH: QVQLVQSGAEVKKPGASVKVSCKASGYTFTSYYMHWVRQAPGQGLEWMGRINPNSGGTKYAQKFQGRVTMTRDTSTSTVYMELSSLRSEDTAVYYCARLGSAYFDLWGRGTLVTVSS
VL: DIQMTQSPSSLSASVGDRVTITCRASQSVDTWLAWYQQKPGKAPKLLIYEASTLESGVPSRFSGSGSGTDFTLTISSLQPEDFATYYCQQANSFPITFGQGTRLEIK
In general, EC50 (read off the curve) refers to the concentration that produces a half-maximal response. With B1, the concentration giving a half-maximal response (EC50 (read off the curve)) in [1] is around 0.4 µg/mL; in [3], around 0.1 µg/mL. The values for the binding result in assay [2] and in assay [4] were “no binding (tested: about 20 µg/mL)” and “binds”, respectively. Also, the “IC50 (read off the curve)” value in assay [5] is around 0.2 µg/mL.

B2: Antibody 88 (antibody, V domains shown)
VH: QVQLVQSGAEVKKPGASVKVSCKASGYTFTSHDINWVRQAPGQGLEWMGWMNANNGNAGYAQKFQGRVTMTRDTSTSTVYMELSSLRSEDTAVYYCAKDLSPSSSWSTYYYYYGMDVWGQGTMVTVSS
VL: DIQMTQSPSSLSASVGDRVTITCRASQSISNLLAWYQQKPGKAPKLLIYAASSLQSGVPSRFSGSGSGTDFTLTISSLQPEDFATYYCQQSYSTPYTFGQGTKLEIK
For B2, the figures for the Kd in assay [6], in assay [7] and in assay [8] were 136 nM, 67.8 nM and 50.6 nM, respectively. The binding result in assay [2] and in assay [9] was “no binding (tested: about 30 µg/mL)” in each case. The concentration for a half-maximal effect (EC50 (read off the curve)) in assay [3] is around 0.7 µg/mL; in assay [10], around 0.04 µg/mL. In addition, the “IC50 (read off the curve)” value in assay [5] was around 0.4 µg/mL.

B3: Antibody 84 (antibody, V domains shown)
VH: QVQLVQSGAEVKKPGASVKVSCKASGYTFTSYYMHWVRQAPGQGLEWMGWINPNSGNAGFAQKFQGRVTMTRDTSTSTVYMELSSLRSEDTAVYYCARGPVYSYGPFDYWGQGTLVTVSS
VL: B2 VL with S28G, N31T, L32Y, S53T, Y92H, T94A, Y96I, L104V
As to B3, the Kd in [7] amounted to 34.1 nM; in assay [8], 2050 nM. Also, the 50% effective concentration (EC50 (read off the curve)) in [1] and in assay [3] was around 0.2 µg/mL in each case. Besides, the binding result in [2] and in [9] was “no binding (tested: about 30 µg/mL)” throughout. Besides, in [5], the “IC50 (read off the curve)” value was around 0.2 µg/mL.

B4: Antibody 54 (antibody, V domains shown)
VH: QVQLVQSGAEVKKPGASVKVSCKASGYSFSDYYMHWVRQAPGQGLEWMGWMSPNSGNTGYAQKFQGRVTMTRDTSTSTVYMELSSLRSEDTAVYYCARQREEYGHYYYGMDVWGQGTMVTVSS
VL: EIVMTQSPATLSVSPGERATLSCRASQSLGSTYLAWYQQKPGQAPRLLIYGASTRATGIPARFSGSGSGTEFTLTISSLQSEDFAVYYCQQYYSSPPTFGQGTKVEIK
In the case of B4, the “EC50 (read off the curve)” value in assay [1] was around 0.8 µg/mL; in [3], around 0.9 µg/mL. In addition, the binding result in assay [2] and in assay [9] was “no binding (tested: about 20 µg/mL)” each time. Further, the “IC50 (read off the curve)” value in assay [5] is around 0.1 µg/mL.
